{"source": "paper PMC3935945", "about": "“Insight into Highly Conserved H1 Subtype-Specific Epitopes in Influenza Virus Hemagglutinin” (PLoS ONE, 2014)", "binders": {"B1": {"name": "Fab fragment from H1-specific monoclonal antibody GC0587 (Fab, V domains shown)", "VH": "VKLQQSGGGVVQPGGSLRLSCAASGFTFSDYDMSWIRQAPGKGLEWVSGILGGSERSYYRDSVKGRFTISRDNSRKTLYLQMNSLRAEDTAVYYCARHGSPGYTLYAWDYWGQGTMVTVSS", "VL": "DIQMTQSPASLAVSPGQRATITCRASESVSNYGINFINWFQQKPGQPPKLLIYTASNKGTGVPARFSGSGSGTDFTLTINPVEAEDTANYFCQQTKEVPYTFGGGTKLEIK", "notes": "also called Fab0587"}}, "target": "T1, recombinant hemagglutinin (HA) of 2009 pandemic virus A/Korea/01/2009 (KR01) (Influenza A virus A/Korea/01/2009 (H1N1), strain)", "T1 construct": "also called KR01 HA; H1N1 HA", "test": "crystal structure", "conditions": "both partners purified"}
{"binder": "B1", "values": [{"measurement": "binding result", "value": "binds"}]}
